B1: R11.1.6 expressed on the surface of yeast (designed binder)
chain: ATVKFTHQGEEKQVDISKIKWVIRWGQYIWFKYDEDGGAKGWGYVSEKDAPKELLQMLKKR
B2: SUMO-R11.1.6 fusion protein (designed binder)
chain: B1 chain

What was measured:
His6-SUMO-K-Ras WT [1] = molecular target: T1, His6-SUMO-K-Ras WT (human, UniProt P01116-2 1-166); assay: FACS; GDP-loaded
His6-SUMO-K-Ras WT [2] = molecular target: T1, His6-SUMO-K-Ras WT; assay: FACS; GppNHp-loaded
[3] = molecular target: N-Ras WT (G domain, residues 1-166) (UniProt P01111 1-166, biotinylated for BLI (site not stated)); assay: BLI; GppNHp-loaded
[4] = molecular target: H-Ras WT (G domain, residues 1-166) (UniProt P01112 1-166, biotinylated for BLI (site not stated)); assay: BLI; GppNHp-loaded
[5] = molecular target: K-Ras WT (G domain, residues 1-166) (human, UniProt P01116-2 1-166, biotinylated for BLI (site not stated)); assay: BLI; GppNHp-loaded

Row | Binder | Kd (His6-SUMO-K-Ras WT [1]) [nM] | Kd (His6-SUMO-K-Ras WT [2]) [nM] | Kd [3] [nM] | Kd [4] [nM] | Kd [5] [nM]
1 | B1 | 2.8 | 50.3 | – | – | –
2 | B2 | – | – | 7 | 10 | 41
